“And” between values parts separate entries of the source, which are not always exact repeats. Equal values may be shown once. Values belong to the substance of their own block, whether it stands above or below them.
Tests used:
[1] = GLP Aggregation Assay (time to onset of aggregation, turbidity at 350 nm); type: physicochemical; conditions: for Aggregation Time: 0.3 mg/mL in 10 mM citrate, 10 mM phosphate, 150 mM NaCl, pH 7.4 to 7.5, 37° C., stirred, turbidity at 350 nm
Protocol: GLP peptides of this invention were analyzed with respect to their potential to aggregate in solution. In general, peptides in solution were stirred at elevated temperature in a suitable buffer while recording turbidity at 350 nm as a function of time. Time to the onset of aggregation was measured to quantify the potential of a given GLP molecule to aggregate under these stressed conditions.
A GLP-1 compound was first dissolved under alkaline conditions (pH 10.5) for 30 minutes to dissolve any pre-aggregated material. The solution was then adjusted to pH 7.4 and filtered. Specifically, 4 mg of a lyophilized GLP-1 compound was dissolved in 3 ml of 10 mM phosphate/10 mM citrate. The pH was adjusted to 10.0-10.5 and held for 30 minutes. The solution was adjusted with HCl to pH 7.4 and filtered through a suitable filter, for example a Millex GV syringe filter (Millipore Corporation, Bedford, Mass.). This solution was then diluted to a final sample containing 0.3 mg/mL protein in 10 mM citrate, 10 mM phosphate, 150 mM NaCl, and adjusted to pH 7.4 to 7.5. […] Every five minutes the turbidity of the solution was measured at 350 nm on an AVIV Model 14DS UV-VIS spectrophotometer (Lakewood, N.J.). For 30 seconds prior to and during the measurement the solution was stirred using a magnetic stir bar from Starna Cells, Inc. (Atascadero, Calif.). An increase in OD at 350 nm indicates aggregation of the GLP-peptide. The time to aggregation was approximated by the intersection of linear fits to the pre-growth and growth phase according to method of Drake (Arvinte T, Cudd A, and Drake A F. (1993) J. Bio. Chem. 268, 6415-6422).
The cuvette was cleaned between experiments with a caustic soap solution (e.g., Contrad-70).
The results for a number of GLP-1 compounds of the present invention are reported in Table 1 as the time in hours required for the compound to aggregate.

GLP-1 receptor = GLP-1 receptor activation, in vitro assays; type: cell-based; conditions: for GLP-1 Receptor Activation: activity relative to the activity of GLP-1(7-37)OH
Source text: “Insulinotropic activity” refers to stimulating insulin secretion in response to elevated glucose levels, thereby causing glucose uptake by cells and decreased serum glucose levels. Insulinotropic activity can be assessed by methods known in the art, including using in vivo experiments and in vitro assays that measure GLP-1 receptor binding activity or receptor activation, e.g., assays employing pancreatic islet cells or insulinoma cells, as described in EP 619,322 to Gelfand, et al., and U.S. Pat. No. 5,120,712, respectively. The entire teachings of these references are incorporated herein by reference.
The ability of the GLP-1 compounds of the present invention to activate the GLP-1 receptor was assessed using in vitro assays such as those described in EP 619,322 to Gelfand, et al., and U.S. Pat. No. 5,120,712, respectively. The entire teachings of these references are incorporated herein by reference.

[2] = Zinc precipitation of GLP-1 compounds (A280 of supernatant); type: physicochemical; conditions: HEPES pH 7.4, 22° C., 18 hours
Protocol: Individual GLP-1 compounds were prepared as described in Examples 1 or 2. 3 mg of an individual lyophilized GLP molecule was dissolved in 3 ml 0.1 M HEPES buffer pH 10.5. The pH of the resulting solution was then adjusted to between 10.0 and 10.5 with 0.2 N NaOH. The solution was stirred at ambient temperature for 30 minutes and the solution was then adjusted to a pH of 7.4 with 0.2 N HCl. The solution was filtered through an appropriate syringe filter, for example a Millex GV syringe filter (Millipore Corporation, Bedford, Mass.), and the concentration of the GLP-1 compound was estimated by measuring the absorption at 280 nm in a spectrophotometer, for example a Beckman DU640. The protein concentration was then adjusted to 200 μM in HEPES pH 7.4.
The filtered GLP-1 solutions (100 μl) were diluted with 100 μl of 0.1 M HEPES pH 7.4 containing various levels of zinc chloride in an ELISA plate, (e.g. Falcon Microtest™ 96) resulting in 200 μl of solution containing various levels of zinc chloride and 100 μM GLP-1 compounds. These solutions were incubated at ambient temperature (22° C.) for 18 hours and then centrifuged, for example, in a Jouan CR412 centrifuge with microplate adapters. 150 μl of the supernatants after centrifugation were then transferred to a UV-readable ELISA microtiter plate (e.g. Costar UV plate) and the OD at 280 was determined in a microplate reader (e.g. Molecular Devices SPECTRAmax PLUS, SOFTmax PRO). A280 values are the result of two independent determinations.

[3] = Zn/GLP-1 molar ratio 0, 100 μM GLP-1 compound
[4] = Zn/GLP-1 molar ratio 0.3, 100 μM GLP-1 compound
[5] = Zn/GLP-1 molar ratio 0.5, 100 μM GLP-1 compound
[6] = Zn/GLP-1 molar ratio 0.7, 100 μM GLP-1 compound
[7] = Zn/GLP-1 molar ratio 1, 100 μM GLP-1 compound
[8] = Zn/GLP-1 molar ratio 2, 100 μM GLP-1 compound
[9] = Zn/GLP-1 molar ratio 3, 100 μM GLP-1 compound
[10] = Zn/GLP-1 molar ratio 5, 100 μM GLP-1 compound

GLP-1 Receptor Activation (GLP-1 receptor): 1.29 | GLP-1 receptor activation greater than GLP-1(7-37)OH (GLP-1 receptor; relative to GLP-1(7-37)OH): about 25%
Substance: Val^8-Glu^22-GLP-1(7-37)OH (HVEGTFTSDVSSYLEEQAAKEFIAWLVKGRG)
Aggregation Time [1]: 72 h | aggregation time compared with GLP-1(7-37)OH ([1]; relative to GLP-1(7-37)OH): over twenty fold greater | A280 [2, 3]: 0.295 | A280 [2, 4]: 0.291 | A280 [2, 5]: 0.292 | A280 [2, 6]: 0.293 | A280 [2, 7]: 0.26 | A280 [2, 8]: 0.078 | A280 [2, 9]: 0.052 | A280 [2, 10]: 0.035

GLP-1 Receptor Activation (GLP-1 receptor): 0.42
Substance: Gln^22-GLP-1(7-37)OH (HAEGTFTSDVSSYLEQQAAKEFIAWLVKGRG)
Aggregation Time [1]: 7 h | A280 [2, 3]: 0.290 | A280 [2, 4]: 0.390 | A280 [2, 5]: 0.123 | A280 [2, 6]: 0.076 | A280 [2, 7]: 0.074 | A280 [2, 8]: 0.095 | A280 [2, 9]: 0.095 | A280 [2, 10]: 0.097

GLP-1 Receptor Activation (GLP-1 receptor): 0.58
Substance: Val^8-Lys^22-GLP-1(7-37)OH (HVEGTFTSDVSSYLEKQAAKEFIAWLVKGRG)
Aggregation Time [1]: 100 h and 54 h | A280 [2, 3]: 0.299 | A280 [2, 4]: 0.0825 | A280 [2, 5]: 0.0905 | A280 [2, 6]: 0.1195 | A280 [2, 7]: 0.1225 | A280 [2, 8]: 0.1675 | A280 [2, 9]: 0.1475 | A280 [2, 10]: 0.142

Source: patent US20060263849A1, “Glucagon-like peptide-1 analogs” (priority 2000, published 2006)
